Data set [1] addresses T1, FL HMGB1 (human, UniProt P09429 1-215, C23S;C45S;C106S;E204C). As to the kind of experiment: smFRET.
The next data set addresses B box (human, UniProt P09429 83-166, C106S;A137C). Put plainly: smFRET.
The next data set has as its target T2, A box (human, UniProt P09429 1-85, C23S;C45S;S35C).
T2 sequence: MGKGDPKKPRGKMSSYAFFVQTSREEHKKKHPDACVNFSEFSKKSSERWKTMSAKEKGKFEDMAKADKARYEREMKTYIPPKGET
As to the kind of experiment: smFRET.

Data set [2] deals with T3, AB (HMGB1 without C-terminal tail) (human, UniProt P09429 1-166, C23S;C45S;C106S;S35C). Put plainly: smFRET.
Another data set concerns the target AB-F38A (human, UniProt P09429 1-166, C23S;F38A;C45S;C106S;S35C). Put plainly: smFRET.
Data set [3] has as its target T1, FL HMGB1. As to the kind of experiment: EMSA.
Target sequence in this assay (P09429 whole entry C23S/C45S/C106S/E204C): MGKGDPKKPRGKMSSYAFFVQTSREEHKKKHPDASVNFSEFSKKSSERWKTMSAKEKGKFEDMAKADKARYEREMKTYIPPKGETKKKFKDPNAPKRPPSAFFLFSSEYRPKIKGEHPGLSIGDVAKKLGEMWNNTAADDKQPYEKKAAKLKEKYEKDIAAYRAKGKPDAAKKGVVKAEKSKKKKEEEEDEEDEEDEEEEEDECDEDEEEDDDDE
Data set [4] has as its target T3, AB (HMGB1 without C-terminal tail). As to the kind of experiment: EMSA.

Chain of B box (P09429 83-166 C106S/A137C): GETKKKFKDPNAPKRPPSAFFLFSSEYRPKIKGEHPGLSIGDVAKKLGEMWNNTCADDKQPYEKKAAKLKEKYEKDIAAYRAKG

B1: smFRET DNA (18 bp with 19 nt 3' overhang) (dsDNA)
DNA 1: CAGGCTATAAAAGGGACG
DNA 2: CGTCCCTTTTATAGCCTGATACAAGCAGCAGTCACCA
As to B1, the binding result (with FL HMGB1 [1]; with B box; with A box; in data set [2]; with AB-F38A) was “binds” in each case.

B2: 18 bp dsDNA (EMSA) (dsDNA)
DNA 1: CAGGCTATAAAAGGGACG
DNA 2: CGTCCCTTTTATAGCCTG
Regarding B2, the Kd in the data set with FL HMGB1 [3] is 10 nM; in data set [4] it was 5 nM.

The values above are taken from publication PMC5642108.
